Measured values taken from the RNAGym collection of RNA variant scans (doi:10.7554/elife.90254).

B1: OR4K15 (parent)
chain: GUUAACGGUCAUAGGCCAUGGAAACUAGGAGCACCAUUUCGCUGCCAGUGAAGAAAUGAACAAAGAAAAUCUGGGCCAGGCAGGCAUCAAAAGAAAUAGUCUUGCGCUCAACCAGAAAGUCUGUAAUCAUUUUAAGGGUA

Variants of: B1
Assay: self-cleavage, relative activity (ratio to wild type); higher = more cleavage; in vitro, sequencing; the parent is a self-cleaving ribozyme
With A24G A111G the self-cleavage was 0.03.
U43C U87A showed a self-cleavage of 1.94.
With A11C A118G the self-cleavage was 2.4.
Work on A22U G53A yielded a self-cleavage of 1.47.
With U26C U122C the self-cleavage was 0.7.
Work on A11G A94G yielded a self-cleavage of 0.95.
C16A A56G showed a self-cleavage of 0.41.
A114G A117G gave a self-cleavage of 0.37.
U120A showed a self-cleavage of 1.61.
With U37G A111G the self-cleavage was 0.03.
Variant U39A G104A has a self-cleavage of 0.03.
A11G U130C gave a self-cleavage of 0.53.
Work on A62G A89U yielded a self-cleavage of 1.85.
A54G U72A showed a self-cleavage of 0.19.
A67U C113U showed a self-cleavage of 0.42.
For U2C U131C, the self-cleavage was 1.08.
U9A A89U gave a self-cleavage of 0.66.
For G53U U122C, the self-cleavage was 2.
With A114G A116U the self-cleavage was 0.05.
Work on G41A A62G yielded a self-cleavage of 2.53.
Variant A11G U12A has a self-cleavage of 1.21.
Variant U49C A118G has a self-cleavage of 0.35.
For U39C A129G, the self-cleavage was 1.7.
With U38C U87C the self-cleavage was 1.26.
In the case of A59G U122C, the self-cleavage is reported as 1.1.
For A5G A54G, the self-cleavage was 1.04.
In the case of G28A A68G, the self-cleavage is reported as 2.39.
U39C A94C showed a self-cleavage of 1.43.
In the case of U72A A95G, the self-cleavage is reported as 0.36.
For A24G A82C, the self-cleavage was 0.25.
In the case of A82U U100C, the self-cleavage is reported as 0.5.
For A13G A135G, the self-cleavage was 0.79.
Variant G29A U139C has a self-cleavage of 2.53.
A66U C113A showed a self-cleavage of 0.
Work on A36G A56G yielded a self-cleavage of 1.3.
For U37C, the self-cleavage was 1.27.
Work on A78G A90G yielded a self-cleavage of 0.24.
In the case of G28C, the self-cleavage is reported as 0.93.
In the case of G73A A92G, the self-cleavage is reported as 0.2.
For A33G U133C, the self-cleavage was 0.88.
For A36G A67U, the self-cleavage was 1.85.
With U132C U139A the self-cleavage was 0.99.
Variant A24G G104U has a self-cleavage of 0.01.
A92G A129U gave a self-cleavage of 1.16.
Work on U39A A126G yielded a self-cleavage of 1.59.
With G29A A59G the self-cleavage was 1.26.
Work on A55G G93U yielded a self-cleavage of 1.76.
For A13G C34G, the self-cleavage was 0.83.
For A64C U131C, the self-cleavage was 1.9.
With A13G A110G the self-cleavage was 0.13.
A98U U131A showed a self-cleavage of 0.49.
For U127C U132A, the self-cleavage was 0.62.
With A18G U87A the self-cleavage was 1.14.
For G41U A66G, the self-cleavage was 1.11.
Work on U72A U124G yielded a self-cleavage of 0.12.
In the case of A54G U122A, the self-cleavage is reported as 1.72.
Variant A11G A78G has a self-cleavage of 0.54.
A5C A117U gave a self-cleavage of 0.56.
With C10A A90G the self-cleavage was 1.02.
Work on U131C A135G yielded a self-cleavage of 1.55.
For A11G A110G, the self-cleavage was 0.12.
With G15C A94G the self-cleavage was 0.33.
In the case of A47U A67G, the self-cleavage is reported as 1.23.
For A23C A27G, the self-cleavage was 0.28.
Variant A11G A125G has a self-cleavage of 0.38.
Work on A86U C101A yielded a self-cleavage of 0.09.
U39A A92G showed a self-cleavage of 0.92.
For A69U A90G, the self-cleavage was 1.31.
Variant U43A A68G has a self-cleavage of 1.25.
In the case of U19C A51G, the self-cleavage is reported as 0.51.
With U39G A125G the self-cleavage was 0.62.
For A66G U133C, the self-cleavage was 1.82.
With A55G A95C the self-cleavage was 1.02.
Work on A59G U133C yielded a self-cleavage of 1.79.
For G15C A24G, the self-cleavage was 0.88.
Work on A94G U127G yielded a self-cleavage of 1.87.
A78G A82U gave a self-cleavage of 0.19.
In the case of A13U A36G, the self-cleavage is reported as 0.89.
Work on A55U A56C yielded a self-cleavage of 2.18.
In the case of A56C U133A, the self-cleavage is reported as 1.4.
For C81U A111U, the self-cleavage was 0.05.
Variant C32U A110G has a self-cleavage of 0.23.
A18G A96G showed a self-cleavage of 1.44.
U26C A82U showed a self-cleavage of 0.28.
A24U A51U showed a self-cleavage of 1.61.
With U38C U49A the self-cleavage was 1.45.
With A66G C76A the self-cleavage was 0.23.
Work on U87C A111G yielded a self-cleavage of 0.03.
Variant A24C A118C has a self-cleavage of 0.84.
In the case of A116U U133C, the self-cleavage is reported as 0.21.
With U49G A68G the self-cleavage was 1.76.
Work on U39C A47G yielded a self-cleavage of 1.25.
With U19C A126G the self-cleavage was 1.48.
Work on A30U U70C yielded a self-cleavage of 0.71.
A95C G137U gave a self-cleavage of 1.17.
With G14C U103C the self-cleavage was 1.13.
Work on A129U yielded a self-cleavage of 0.65.
U72A A86U gave a self-cleavage of 0.32.
Work on A59G U103A yielded a self-cleavage of 0.62.
U100C A117G showed a self-cleavage of 2.56.
U43A U102C showed a self-cleavage of 2.2.
A5G A96G showed a self-cleavage of 1.21.
G75C U130C gave a self-cleavage of 0.08.
With A92U C112U the self-cleavage was 0.01.
For A91U A117U, the self-cleavage was 1.15.
In the case of U2A A47U, the self-cleavage is reported as 0.78.
Variant A23U A54U has a self-cleavage of 1.61.
Work on G28A A78U yielded a self-cleavage of 0.18.
For A18U A52U, the self-cleavage was 1.6.
Work on A47G A111G yielded a self-cleavage of 0.02.
In the case of U26C U120C, the self-cleavage is reported as 0.85.
With U3C A91U the self-cleavage was 1.11.
For A89U A118C, the self-cleavage was 0.7.
In the case of G21A A69U, the self-cleavage is reported as 1.48.
For U3A U130C, the self-cleavage was 1.09.
With G31A A86G the self-cleavage was 1.75.
Work on A33U U131C yielded a self-cleavage of 1.83.
For U2C G119A, the self-cleavage was 1.05.
G41C A86C showed a self-cleavage of 0.81.
In the case of U49A A56G, the self-cleavage is reported as 1.74.
Work on A47U A55G yielded a self-cleavage of 0.6.
For U43C A90U, the self-cleavage was 1.83.
For U102C U122C, the self-cleavage was 1.24.
In the case of A52G A56G, the self-cleavage is reported as 0.76.
In the case of U133G, the self-cleavage is reported as 0.38.
G44A A95G showed a self-cleavage of 1.76.
With G74A U103C the self-cleavage was 0.08.
With C34U A117G the self-cleavage was 1.91.
Variant A54G U120A has a self-cleavage of 1.89.
With C46U the self-cleavage was 1.54.
Work on A78U U97C yielded a self-cleavage of 0.36.
With A64C U103A the self-cleavage was 0.14.
For A66G U132C, the self-cleavage was 0.6.
Work on A59G G80U yielded a self-cleavage of 0.26.
With A90G U131C the self-cleavage was 0.31.
A59G A126G gave a self-cleavage of 0.81.
A24G A47G showed a self-cleavage of 0.73.
U3C A55G showed a self-cleavage of 1.1.
A47G U72C gave a self-cleavage of 0.35.
Work on A86G A91C yielded a self-cleavage of 0.64.
Work on G20A U49A yielded a self-cleavage of 1.67.
Variant A60C A96G has a self-cleavage of 1.77.
Work on U70C C128U yielded a self-cleavage of 0.31.
For U124C A126G, the self-cleavage was 0.48.
A69G A111C gave a self-cleavage of 0.02.
With U102C A135U the self-cleavage was 2.46.
For A23G A91C, the self-cleavage was 1.49.
For A95G C105A, the self-cleavage was 0.09.
In the case of A30G A54G, the self-cleavage is reported as 1.21.
Work on U19A A54G yielded a self-cleavage of 1.15.
With U100A U130C the self-cleavage was 0.09.
For A60U A140G, the self-cleavage was 2.47.
Variant C35U U57A has a self-cleavage of 0.59.
U72A A91G showed a self-cleavage of 0.19.
With A22G A27G the self-cleavage was 1.04.
For C42A A91U, the self-cleavage was 0.86.
Work on A56G A92G yielded a self-cleavage of 1.68.
A36U A69G gave a self-cleavage of 1.56.
G41C A64U showed a self-cleavage of 2.26.
For A23U C76A, the self-cleavage was 0.23.
A4U G106A gave a self-cleavage of 0.14.
Work on A51G G138C yielded a self-cleavage of 1.66.
Variant U19A A116C has a self-cleavage of 0.09.
For U9G U26C, the self-cleavage was 0.34.
Work on A30G A95U yielded a self-cleavage of 1.42.
In the case of U97A U130C, the self-cleavage is reported as 1.59.
With A56G A63U the self-cleavage was 1.68.
